Source: paper PMC9898740, “Spatial control of self-organizing vascular networks with programmable aptamer-tethered growth factor photopatterning”

Target: VEGF165 (UniProt P15692-4 27-191)
Test: hydrogel sequestration, anti-VEGFA immunofluorescence (confocal); aptamer tethered in GelMA hydrogel, 10 ng VEGF 1 h; GelMA region without aptamer about 16% of the aptamer-region signal; 0.1% BSA in DPBS, 37 °C, 10 ng VEGF in 1 ml for 1 h, wash, 24 h at 37 °C; 25 µM aptamer in 5% GelMA
Conditions: protein: commercial; chain copies: 2; single strand, covalently tethered in GelMA hydrogel

Sequence of VEGF165 (P15692 other isoform, or with tags, fused parts or gaps): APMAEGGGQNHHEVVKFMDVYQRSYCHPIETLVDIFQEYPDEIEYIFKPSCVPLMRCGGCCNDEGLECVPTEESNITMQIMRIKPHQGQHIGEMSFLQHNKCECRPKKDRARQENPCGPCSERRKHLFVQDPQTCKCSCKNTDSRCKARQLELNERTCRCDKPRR

B1: VEGF165-specific 5'-acrydite aptamer (ssDNA)
DNA: CGATCGTATCAGTCCACAAGCCCGTCTTCCAGACAAGAGTGCAGGGC
modifications: 5'-acrydite
  binding result: binds
